Test results as given in paper PMC10786891, “Massively parallel profiling of RNA-targeting CRISPR-Cas13d”.
Changes are numbered by the printed parent chain. Numbers in names are those of the source.

T1: EsCas13d, nuclease-dead (Eubacterium siraeum, UniProt B0MS50, R295A;H300A;R849A;H854A)
T1 sequence: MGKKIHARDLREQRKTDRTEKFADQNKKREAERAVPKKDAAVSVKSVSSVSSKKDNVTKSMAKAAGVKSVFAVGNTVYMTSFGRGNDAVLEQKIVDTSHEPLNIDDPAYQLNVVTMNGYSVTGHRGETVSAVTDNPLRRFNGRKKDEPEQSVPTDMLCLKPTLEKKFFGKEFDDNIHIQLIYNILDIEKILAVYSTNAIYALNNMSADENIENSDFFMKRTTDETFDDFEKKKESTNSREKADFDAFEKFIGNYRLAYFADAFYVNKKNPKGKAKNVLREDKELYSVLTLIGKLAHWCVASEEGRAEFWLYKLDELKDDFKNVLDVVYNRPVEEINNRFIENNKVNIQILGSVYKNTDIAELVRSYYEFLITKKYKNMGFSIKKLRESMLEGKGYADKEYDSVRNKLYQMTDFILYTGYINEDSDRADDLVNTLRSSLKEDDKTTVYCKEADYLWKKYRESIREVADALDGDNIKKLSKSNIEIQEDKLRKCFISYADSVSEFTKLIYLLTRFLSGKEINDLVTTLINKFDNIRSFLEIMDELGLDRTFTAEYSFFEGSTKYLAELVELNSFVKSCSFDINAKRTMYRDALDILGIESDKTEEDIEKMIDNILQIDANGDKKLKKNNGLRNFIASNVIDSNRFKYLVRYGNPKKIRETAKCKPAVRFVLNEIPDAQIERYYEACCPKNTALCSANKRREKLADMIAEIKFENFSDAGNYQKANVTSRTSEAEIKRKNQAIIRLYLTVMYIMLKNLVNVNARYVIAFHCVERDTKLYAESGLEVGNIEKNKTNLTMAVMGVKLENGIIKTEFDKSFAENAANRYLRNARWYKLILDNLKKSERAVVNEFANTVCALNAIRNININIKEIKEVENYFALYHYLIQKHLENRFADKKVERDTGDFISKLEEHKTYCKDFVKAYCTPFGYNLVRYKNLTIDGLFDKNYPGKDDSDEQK

B1: target 3 C6U,A11C (mixed)
RNA 1: CACCCGUGCAAAAUUGCAGGGGUCUAAAACGACCUGAAUAUUUCAGAUCAAA
RNA 2: GGGAAUGGAUCCACAUCUACGAAUUCGUUUUUGAUCUGAACUAUUUAGGUCUGCAGAUCGGAAGAGCACACGU
B2: target 1 A20U,C21A (mixed)
RNA 1: CACCCGUGCAAAAAUGCAGGGGUCUAAAACUGAGCGGAUAACCUCUCUAUGG
RNA 2: GGGAAUGGAUCCACAUCUACGAAUUCGUACAUUAGAGAGGUUAUCCGCUCACCGAGAUCGGAAGAGCACACGU
B3: target 3 insG 3' of 11,insU 3' of 4 (mixed)
RNA 1: B1 RNA 1
RNA 2: GGGAAUGGAUCCACAUCUACGAAUUCGUUUUUGAUCUGAAAGUAUUCAGUGUCUGCAGAUCGGAAGAGCACACGU
B4: target 3 U2C,U7G (mixed)
RNA 1: B1 RNA 1
RNA 2: B1 RNA 2 with C41A, U45G, U46C, U50C
B5: target 3 C1U,G3U (mixed)
RNA 1: B1 RNA 1
RNA 2: B1 RNA 2 with C41A, U46C, G49U, C51U
B6: target 3 insU 3' of 22,insU 3' of 22 (mixed)
RNA 1: B1 RNA 1
RNA 2: GGGAAUGGAUCCACAUCUACGAAUUCGUUUUUUUGAUCUGAAAUAUUCAGGUCUGCAGAUCGGAAGAGCACACGU
B7: target 3 insG 3' of 9,insG 3' of 5 (mixed)
RNA 1: B1 RNA 1
RNA 2: B3 RNA 2 with G42U, U43A, A44G, U50G
B8: target 3 insG 3' of 8,insG 3' of 7 (mixed)
RNA 1: B1 RNA 1
RNA 2: B3 RNA 2 with G42U, U43A, A44U, U45G, C47G, A48C, G49A, U50G
B9: target 3 insG 3' of 16,insA 3' of 2 (mixed)
RNA 1: B1 RNA 1
RNA 2: B3 RNA 2 with U37G, G38U, A39G, G42A, U50G, G51U, U52A
B10: target 3 G3U,G4C (mixed)
RNA 1: B1 RNA 1
RNA 2: B1 RNA 2 with C41A, U46C, G48C, G49U
B11: target 3 insG 3' of 9,insA 3' of 7 (mixed)
RNA 1: B1 RNA 1
RNA 2: B3 RNA 2 with G42U, U43A, A44G, C47A, A48C, G49A, U50G
B12: target 3 insC 3' of 7,insC 3' of 5 (mixed)
RNA 1: B1 RNA 1
RNA 2: B3 RNA 2 with G42U, U43A, A44U, U46C, G49C, U50G
B13: target 1 insC 3' of 20 (mixed)
RNA 1: B2 RNA 1
RNA 2: GGGAAUGGAUCCACAUCUACGAAUUCGUACCACUAGAGAGGUUAUCCGCUCACCGAGAUCGGAAGAGCACACGU
B14: target 3 G4U,U8G (mixed)
RNA 1: B1 RNA 1
RNA 2: B1 RNA 2 with C41A, U44G, U46C, G48U
B15: target 3 G4C,A12U (mixed)
RNA 1: B1 RNA 1
RNA 2: B1 RNA 2 with A40U, C41A, U46C, G48C
B16: target 3 C1A,G3U (mixed)
RNA 1: B1 RNA 1
RNA 2: B1 RNA 2 with C41A, U46C, G49U, C51A
B17: target 3 G3U (mixed)
RNA 1: B1 RNA 1
RNA 2: B1 RNA 2 with C41A, U46C, G49U
B18: target 3 insG 3' of 6,insC 3' of 5 (mixed)
RNA 1: B1 RNA 1
RNA 2: B3 RNA 2 with G42U, U43A, A44U, U46C, C47G, G49C, U50G
B19: target 3 insC 3' of 2,insU 3' of 1 (mixed)
RNA 1: B1 RNA 1
RNA 2: B3 RNA 2 with G42U, U43A, A44U, U46C, C47A, A48G, G51C, U52C, C53U
B20: target 3 insA 3' of 17,insA 3' of 15 (mixed)
RNA 1: B1 RNA 1
RNA 2: B6 RNA 2 with U33G, U34A, G35U, U37C, C38U, U39A
B21: target 3 G4C,U21A (mixed)
RNA 1: B1 RNA 1
RNA 2: B1 RNA 2 with U31A, C41A, U46C, G48C
B22: target 3 C1A,U7A (mixed)
RNA 1: B1 RNA 1
RNA 2: B1 RNA 2 with C41A, U45A, U46C, C51A
B23: target 3 G4U,U7A (mixed)
RNA 1: B1 RNA 1
RNA 2: B1 RNA 2 with C41A, U45A, U46C, G48U
B24: target 1 C2A,G13C (mixed)
RNA 1: B2 RNA 1
RNA 2: B2 RNA 2 with A31C, U32A, G39C, C50A
B25: target 3 insA 3' of 8,insC 3' of 4 (mixed)
RNA 1: B1 RNA 1
RNA 2: B3 RNA 2 with G42U, U43A, A44U, U45A, U50C
B26: target 3 G19A,U20G (mixed)
RNA 1: B1 RNA 1
RNA 2: B1 RNA 2 with U32G, G33A, C41A, U46C
B27: target 3 insA 3' of 22,insU 3' of 4 (mixed)
RNA 1: B1 RNA 1
RNA 2: B3 RNA 2 with U31A, G33U, A34G, U35A, C36U, U37C, G38U, A39G, G42A
B28: target 3 C6A,U22G (mixed)
RNA 1: B1 RNA 1
RNA 2: B1 RNA 2 with U30G, C41A, U46A
B29: target 3 U2G,U21A (mixed)
RNA 1: B1 RNA 1
RNA 2: B1 RNA 2 with U31A, C41A, U46C, U50G
B30: target 3 insA 3' of 21,insG 3' of 2 (mixed)
RNA 1: B1 RNA 1
RNA 2: GGGAAUGGAUCCACAUCUACGAAUUCGUUUUAUGAUCUGAAAUAUUCAGGUGCUGCAGAUCGGAAGAGCACACGU
B31: target 3 A5G,U8G (mixed)
RNA 1: B1 RNA 1
RNA 2: B1 RNA 2 with C41A, U44G, U46C, A47G
B32: target 3 insU 3' of 11,insA 3' of 6 (mixed)
RNA 1: B1 RNA 1
RNA 2: B3 RNA 2 with G42U, G49A, U50G
B33: target 3 A9G,U21A (mixed)
RNA 1: B1 RNA 1
RNA 2: B1 RNA 2 with U31A, C41A, A43G, U46C

What follows are binders tested against T1, EsCas13d, nuclease-dead (assay: crRNA (strand 1, pre-loaded); Mg2+; 40 mM Tris-HCl pH 7.5, 150 mM NaCl, 6 mM MgCl2, 1 mM DTT, 0.1% Tween-20, 0.2 mg/ml BSA; 25 C; 10 min per concentration, then washed). Conditions: tags: His6-TwinStrep-SUMO cleaved; N-terminal SNAP kept (SNAP-Surface 488); label: 3' end held by stalled T7 RNA polymerase.

Binder	Kd [nM]
B1	63 ± 17.6
B2	29 ± 5
B3	55.5 ± 10.5
B4	86 ± 33
B5	45.5 ± 11.5
B6	24.1 ± 3
B7	60 ± 13.5
B8	37.4 ± 3.15
B9	75 ± 30
B10	10.5 ± 1
B11	43.5 ± 5.5
B12	108 ± 18.5
B13	6.4 ± 0.4
B14	16.4 ± 2.35
B15	110 ± 45
B16	~75
B17	22.9 ± 2.2

Binder	Kd [nM]
B18	11.4 ± 1.1
B19	82.5 ± 27.5
B20	36.9 ± 8.1
B21	87 ± 16
B22	28.5 ± 14
B23	10.4 ± 1.4
B24	50 ± 5
B25	61.5 ± 9.5
B26	55 ± 8
B27	4.56 ± 0.52
B28	108 ± 25
B29	36.5 ± 7
B30	39.8 ± 3.75
B31	65.5 ± 7.5
B32	63 ± 8.5
B33	95.5 ± 22.5
